This data set deals with the molecule itself. The data set can be described thus: thioflavin T fluorescence of fibril formation; monomeric αS (50 μM in Fig. 5; 20–200 μM in Fig. 4) with 10 μM ThT, 96-well plates with Teflon polybeads, shaking at 500 rpm, 37 °C (other temperatures in Fig. 6), PBS.

B1: m-αS Δ104–140 (domain or fragment)
chain: not shown
In the case of B1, the binding result is on record as “binds”.

The record behind these values is PMC10322983, “Intramolecular interaction kinetically regulates fibril formation by human and mouse α-synuclein” (Scientific Reports, 2023).
